Test results taken from US20150197564A1 (Regeneron, published 2015).

What was measured:
[1] = molecular target: T1, N-terminal biotin tagged Peptide 2 (human, N-terminal biotin tag); test: OCTET RED label-free biosensor; biotinylated peptide on streptavidin-coated tips dipped into 1 uM antibody, binding monitored for 2.5 minutes
T1 construct: Immobilised on streptavidin biosensor tips; also called ANGPTL3 peptide
T1 peptide: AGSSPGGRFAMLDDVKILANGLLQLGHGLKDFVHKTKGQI
Method: (§1) To assess the binding of the anti-ANGPTL3 antibody H4H1276S to peptides derived from the N-terminal coiled-coil region of ANGPTL3, a label-free biosensor binding assay was performed using OCTET® RED system (ForteDo, Inc.). […] The peptide-coated biosensor tips were then dipped into wells containing 1 μM of either anti-ANGPTL3 antibody H4H1276S or an isotype-matched negative control antibody, and binding was monitored for 2.5 minutes. It was observed that H4H1276S binds to the ANGPTL3 linear sequence defined by Peptide 2 but not the overlapping but distinct sequence defined by Peptide 3 (see also FIG. 1). The isotype control antibody also served as a positive control for loading of Peptide 1 (i.e., hANGPTL4 peptide) onto the biosensor, because this isotype control antibody specifically recognizes hANGPTL4.

[2] = molecular target: T2, C-terminal biotin tagged Peptide 3 (human, C-terminal biotin tag); test: as above
T2 construct: Immobilised on streptavidin biosensor tips; also called ANGPTL3 peptide
T2 peptide: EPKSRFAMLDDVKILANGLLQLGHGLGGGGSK
Method: as §1

hANGPTL3(17-460)-His = molecular target: T3, hANGPTL3(17-460)-His (human, UniProt Q9Y5C1 17-460); test: SPR Biacore, antigen captured, 25C, pH 7.4, HBS-EP
T3 construct: Bought protein (R&D Systems); also called full-length mature human ANGPTL3 with a C-terminal decahistidine tag; Human ANGPTL3 (17-460)-His
T3 sequence: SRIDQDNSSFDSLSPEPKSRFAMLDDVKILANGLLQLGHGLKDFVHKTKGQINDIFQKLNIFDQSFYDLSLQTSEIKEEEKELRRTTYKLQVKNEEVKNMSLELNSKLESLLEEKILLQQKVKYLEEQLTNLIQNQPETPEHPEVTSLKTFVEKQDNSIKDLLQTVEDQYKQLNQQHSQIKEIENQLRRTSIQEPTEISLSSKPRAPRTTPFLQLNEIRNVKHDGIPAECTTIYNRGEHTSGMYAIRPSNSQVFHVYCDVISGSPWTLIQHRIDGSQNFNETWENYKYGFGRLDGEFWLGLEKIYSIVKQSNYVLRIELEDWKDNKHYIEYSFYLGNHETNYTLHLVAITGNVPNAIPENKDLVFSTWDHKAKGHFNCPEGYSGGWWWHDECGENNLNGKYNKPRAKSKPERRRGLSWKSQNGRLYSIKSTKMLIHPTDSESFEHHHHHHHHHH
Method: (§2) All kinetic binding experiments were performed at 25° C. or 37° C. on a BIACORE™ T200 label-free molecular interaction instrument (GE Healthcare) using a CM5 sensor chip. Briefly, an antigen capture surface was generated by covalently coupling either an anti-mouse IgG-specific antibody (anti-mFc; GE Healthcare; catalog #BR-1008-38) or an anti-pentahistidine-specific antibody (Qiagen; catalog #34660) to the surface of a CM5 sensor chip using a standard amine coupling method.

hANGPTL3(17-170)-His = molecular target: T4, hANGPTL3(17-170)-His (human, UniProt Q9Y5C1 17-170); test: SPR Biacore, antigen captured, 25C, pH 7.4, HBS-EP
T4 construct: also called N-terminal coiled-coil domain of hANGPTL3 with a C-terminal hexahistidine tag; Human ANGPTL3 (17-170)-His
T4 sequence: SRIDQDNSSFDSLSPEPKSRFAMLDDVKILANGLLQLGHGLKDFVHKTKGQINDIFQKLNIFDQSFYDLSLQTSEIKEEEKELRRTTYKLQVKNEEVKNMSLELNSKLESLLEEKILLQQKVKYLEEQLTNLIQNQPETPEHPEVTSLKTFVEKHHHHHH
Method: as §2

mANGPTL3(17-455)-His = molecular target: T5, mANGPTL3(17-455)-His (Mus musculus, UniProt Q9R182 17-455); test: SPR Biacore, antigen captured, 25C, pH 7.4, HBS-EP
T5 construct: Bought protein (R&D Systems); also called full-length mature ANGPTL3 from Mus musculus with a C-terminal decahistidine tag
T5 sequence: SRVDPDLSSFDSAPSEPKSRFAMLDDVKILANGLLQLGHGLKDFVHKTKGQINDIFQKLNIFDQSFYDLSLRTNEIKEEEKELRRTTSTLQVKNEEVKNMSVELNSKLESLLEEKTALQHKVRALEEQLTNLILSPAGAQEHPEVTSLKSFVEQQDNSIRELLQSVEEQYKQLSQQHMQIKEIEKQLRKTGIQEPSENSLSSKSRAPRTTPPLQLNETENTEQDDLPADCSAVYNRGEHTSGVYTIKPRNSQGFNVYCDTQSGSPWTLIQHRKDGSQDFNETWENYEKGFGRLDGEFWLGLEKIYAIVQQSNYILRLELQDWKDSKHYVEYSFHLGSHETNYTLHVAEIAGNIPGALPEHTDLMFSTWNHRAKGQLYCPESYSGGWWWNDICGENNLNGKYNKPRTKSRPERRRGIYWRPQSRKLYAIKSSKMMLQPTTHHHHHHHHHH
Method: as §2

rANGPTL3(17-240)-mmH = molecular target: T6, rANGPTL3(17-240)-mmH (Rattus norvegicus); test: SPR Biacore, antigen captured, 25C, pH 7.4, HBS-EP
T6 construct: also called N-terminal coiled-coil domain of ANGPTL3 from Rattus norvegicus with myc-myc-hexahistidine tag
T6 chain: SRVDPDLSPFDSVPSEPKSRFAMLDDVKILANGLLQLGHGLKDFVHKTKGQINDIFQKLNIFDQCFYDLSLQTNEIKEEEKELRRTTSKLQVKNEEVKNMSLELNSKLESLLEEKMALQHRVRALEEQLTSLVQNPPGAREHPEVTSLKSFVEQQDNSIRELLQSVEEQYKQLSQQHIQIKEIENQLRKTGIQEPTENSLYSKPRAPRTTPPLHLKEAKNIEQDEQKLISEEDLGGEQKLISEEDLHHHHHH
Method: as §2

B1: H4H1276S (antibody, IgG4, V domains shown)
VH: EVQLVESGGGVIQPGGSLRLSCAASGFTFDDYAMNWVRQGPGKGLEWVSAISGDGGSTYYADSVKGRFTISRDNSKNSLYLQMNSLRAEDTAFFYCAKDLRNTIFGVVIPDAFDIWGQGTMVTVSS
VL: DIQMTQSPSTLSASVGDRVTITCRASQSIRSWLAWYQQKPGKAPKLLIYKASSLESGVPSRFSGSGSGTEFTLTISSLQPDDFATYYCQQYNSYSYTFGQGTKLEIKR
binding result [1]: binds | binding result [2]: no binding (tested: 1 uM) | Kd (hANGPTL3(17-460)-His): 0.491 nM | koff (hANGPTL3(17-460)-His): 0.000289 s⁻¹ | kon (hANGPTL3(17-460)-His): 588000 M⁻¹ s⁻¹ | t1/2 (hANGPTL3(17-460)-His): 40 min | Kd (hANGPTL3(17-170)-His): 0.938 nM | koff (hANGPTL3(17-170)-His): 0.000912 s⁻¹ | kon (hANGPTL3(17-170)-His): 973000 M⁻¹ s⁻¹ | t1/2 (hANGPTL3(17-170)-His): 12.7 min | Kd (mANGPTL3(17-455)-His): 0.268 nM | koff (mANGPTL3(17-455)-His): 0.000346 s⁻¹ | kon (mANGPTL3(17-455)-His): 1.29e+06 M⁻¹ s⁻¹ | t1/2 (mANGPTL3(17-455)-His): 33.4 min | Kd (rANGPTL3(17-240)-mmH): 0.53 nM | koff (rANGPTL3(17-240)-mmH): 0.000718 s⁻¹ | kon (rANGPTL3(17-240)-mmH): 1.35e+06 M⁻¹ s⁻¹ | t1/2 (rANGPTL3(17-240)-mmH): 16.1 min
